The chains are these.
B1: Eukaryotic translation initiation factor 4E1 (Drosophila melanogaster (Fruit fly)), P48598 (parent)
chain: MQSDFHRMKNFANPKSMFKTSAPSTEQGRPEPPTSAAAPAEAKDVKPKEDPQETGEPAGNTATTTAPAGDDAVRTEHLYKHPLMNVWTLWYLENDRSKSWEDMQNEITSFDTVEDFWSLYNHIKPPSEIKLGSDYSLFKKNIRPMWEDAANKQGGRWVITLNKSSKTDLDNLWLDVLLCLIGEAFDHSDQICGAVINIRGKSNKISIWTADGNNEEAALEIGHKLRDALRLGRNNSLQYQLHKDTMVKQGSNVKSIYTL
partner: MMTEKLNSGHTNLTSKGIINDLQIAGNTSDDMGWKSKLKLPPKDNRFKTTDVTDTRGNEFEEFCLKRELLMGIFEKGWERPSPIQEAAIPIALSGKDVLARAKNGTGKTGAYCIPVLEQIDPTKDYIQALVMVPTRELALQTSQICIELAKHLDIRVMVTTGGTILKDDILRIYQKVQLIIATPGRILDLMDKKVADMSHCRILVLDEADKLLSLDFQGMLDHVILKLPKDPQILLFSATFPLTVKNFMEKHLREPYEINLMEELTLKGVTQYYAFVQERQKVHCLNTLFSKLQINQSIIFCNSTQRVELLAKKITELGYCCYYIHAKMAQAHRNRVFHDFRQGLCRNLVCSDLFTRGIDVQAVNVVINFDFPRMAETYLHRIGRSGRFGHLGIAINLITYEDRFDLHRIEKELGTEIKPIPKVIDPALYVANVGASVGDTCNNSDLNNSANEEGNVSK

Variants of B1 are the subject of this assay. The conditions noted are these: with ddx6_drome me31B.
Regarding W117A, the “effect of a mutation on the interaction” value was “disrupting interaction strength”.

For the origin of these results see IntAct's records for PubMed 36638908.
